The values below come from US20200113969.

Data set [1] deals with peak 3 of the RP-HPLC fractionation of L. albus deflamin (UniProt F5B8W8).
For data set [2], the target named is peak 2 of the RP-HPLC fractionation of L. albus deflamin (UniProt F5B8W8).
Data set [3] concerns deflamin isolated from Lupinus albus seeds.
Data set [4] deals with peak 4 of the RP-HPLC fractionation of L. albus deflamin.
Data set [5] deals with peak 1 of the RP-HPLC fractionation of L. albus deflamin.

Sequence of MMP-9 (commercial enzyme, Sigma) (chain, as listed by the source): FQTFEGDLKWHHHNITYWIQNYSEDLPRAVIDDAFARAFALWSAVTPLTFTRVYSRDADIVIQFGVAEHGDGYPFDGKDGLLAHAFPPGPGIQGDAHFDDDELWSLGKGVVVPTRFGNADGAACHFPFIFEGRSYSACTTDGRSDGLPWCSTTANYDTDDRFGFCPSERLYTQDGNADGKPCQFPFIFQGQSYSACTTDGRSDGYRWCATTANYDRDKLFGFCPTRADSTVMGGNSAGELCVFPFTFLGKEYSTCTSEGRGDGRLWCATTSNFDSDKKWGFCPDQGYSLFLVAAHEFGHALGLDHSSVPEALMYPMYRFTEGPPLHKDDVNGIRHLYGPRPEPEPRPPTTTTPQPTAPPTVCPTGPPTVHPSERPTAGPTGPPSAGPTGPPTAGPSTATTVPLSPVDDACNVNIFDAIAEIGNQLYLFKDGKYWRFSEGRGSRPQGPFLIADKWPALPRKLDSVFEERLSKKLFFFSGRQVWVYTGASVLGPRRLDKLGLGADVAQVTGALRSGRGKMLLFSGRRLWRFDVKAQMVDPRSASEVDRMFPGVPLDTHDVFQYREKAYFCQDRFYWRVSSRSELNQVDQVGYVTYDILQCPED
Sequence of deflamin isolated from Lupinus albus seeds (chain, as listed by the source, chain 1 of 2): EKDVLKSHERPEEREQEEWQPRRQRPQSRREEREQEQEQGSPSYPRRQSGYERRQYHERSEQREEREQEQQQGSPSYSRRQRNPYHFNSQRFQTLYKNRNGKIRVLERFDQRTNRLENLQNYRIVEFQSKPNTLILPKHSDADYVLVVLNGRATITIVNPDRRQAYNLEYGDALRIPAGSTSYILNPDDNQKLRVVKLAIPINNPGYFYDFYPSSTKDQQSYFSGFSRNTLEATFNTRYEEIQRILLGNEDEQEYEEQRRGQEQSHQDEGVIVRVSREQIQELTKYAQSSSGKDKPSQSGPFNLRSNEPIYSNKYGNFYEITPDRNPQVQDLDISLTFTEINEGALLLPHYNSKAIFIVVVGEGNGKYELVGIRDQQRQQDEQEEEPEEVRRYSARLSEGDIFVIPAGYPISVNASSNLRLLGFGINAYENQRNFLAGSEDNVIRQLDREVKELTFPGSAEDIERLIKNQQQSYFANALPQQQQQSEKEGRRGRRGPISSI
Sequence of deflamin isolated from Lupinus albus seeds (chain, as listed by the source, chain 2 of 2): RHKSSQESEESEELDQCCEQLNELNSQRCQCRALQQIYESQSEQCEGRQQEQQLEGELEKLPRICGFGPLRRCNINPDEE
Sequence of peak 3 of the RP-HPLC fractionation of L. albus deflamin (F5B8W8 whole entry, looked up): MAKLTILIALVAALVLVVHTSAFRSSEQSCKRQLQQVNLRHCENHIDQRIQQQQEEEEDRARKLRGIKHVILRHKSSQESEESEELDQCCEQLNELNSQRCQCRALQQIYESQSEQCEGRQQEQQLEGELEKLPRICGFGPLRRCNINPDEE
Sequence of peak 2 of the RP-HPLC fractionation of L. albus deflamin (F5B8W8 whole entry, looked up): as above

For MMP-9 (commercial enzyme, Sigma), the “MMP-9 proteolytic activity, DQ fluorogenic assay, 25 µg/ml” value was “all the selected peaks presented some degree of MMP inhibition and also inhibited invasion, but peak 3 was the one with the highest observed activities” in data set [1]; “all the selected peaks presented some degree of MMP inhibition” in data set [2]; “all the selected peaks presented some degree of MMP inhibition” in data set [4]; “all the selected peaks presented some degree of MMP inhibition” in data set [5]. In data set [3], the “MMP-9 proteolytic activity on DQ-gelatin, deflamin at 50 µg/mL” value is listed as “the highest inhibition (P<0.05) detected for deflamin, which induced a reduction greater than 80% of MMP-9 activity”.
